Biological target: mouse Mcl-1 with truncations of 151 amino acid residues at its N-terminus and 23 residues at its C-terminus (mouse) (UniProt P97287)
Test: competition phage ELISA

mouse Mcl-1 with truncations of 151 amino acid residues at its N-terminus and 23 residues at its C-terminus (mouse), sequence (P97287 152-308): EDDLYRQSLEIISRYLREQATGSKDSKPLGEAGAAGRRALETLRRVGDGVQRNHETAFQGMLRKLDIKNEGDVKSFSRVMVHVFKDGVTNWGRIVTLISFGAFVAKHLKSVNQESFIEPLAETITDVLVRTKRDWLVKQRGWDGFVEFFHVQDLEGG

PSSTMGQVGRQLAIIGDDINRRYDAE [Bak BH3 S25A, phage-displayed] and PSSTMGQVGRQLAIIGDDINRRYDSE [Bak BH3 wild type, phage-displayed] are the same in Fold/wt: 1 fold for the first, 1 fold for the second.

PSSTMGQVGRQLAIIGDDINRRYASE [Bak BH3 D24A, phage-displayed] and PSSTMGQVGRQLAIIGDDINRRYDSA [Bak BH3 E26A, phage-displayed] cannot be ordered by Fold/wt: less than 1 fold for the first, less than 1 fold for the second.

Going from PSSTMGQVGRQLAIIGDDINRRADSE [Bak BH3 Y23A, phage-displayed] to PSSTMGQVGRQLAIIGDDINRAYDSE [Bak BH3 R22A, phage-displayed], the Fold/wt falls from 6 fold to 1 fold.

PSSTMGQVGRQLAIIGDDINRRYDAE [Bak BH3 S25A, phage-displayed] and PSSTMGQVGRQLAIIGDDINRRYDSE [Bak BH3 wild type, phage-displayed] are within 1.5-fold of each other in IC50: 18 nM for the first, 21 nM for the second.

PSSTMGQVGRQLAIIGDDINRRYASE [Bak BH3 D24A, phage-displayed] and PSSTMGQVGRQLAIIGDDINRRYDSA [Bak BH3 E26A, phage-displayed] are within 1.5-fold of each other in IC50: 9 nM for the first, 10 nM for the second.

Going from PSSTMGQVGRQLAIIGDDINRRADSE [Bak BH3 Y23A, phage-displayed] to PSSTMGQVGRQLAIIGDDINRAYDSE [Bak BH3 R22A, phage-displayed], the IC50 falls from 117 nM to 16 nM (7.3-fold). The second is the more potent here.

Biological target: Recombinant human Bcl-xL with a 25 amino acid truncation of its C-terminus (human) (UniProt Q07817)
Sequence (Q07817 1-208): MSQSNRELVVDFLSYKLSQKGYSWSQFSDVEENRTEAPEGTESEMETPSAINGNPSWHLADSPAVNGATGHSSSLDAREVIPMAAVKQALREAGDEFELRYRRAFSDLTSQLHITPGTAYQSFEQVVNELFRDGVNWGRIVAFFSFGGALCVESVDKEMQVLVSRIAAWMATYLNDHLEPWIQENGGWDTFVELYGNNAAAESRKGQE
Test: competition phage ELISA

PSSTMGQVGRQLAIIGDDINRRYDAE [Bak BH3 S25A, phage-displayed] and PSSTMGQVGRQLAIIGDDINRRYDSE [Bak BH3 wild type, phage-displayed] are the same in Fold/wt: 1 fold for the first, 1 fold for the second.

NLWAAQRYGRELRRMSDEFVDSFKKG [Bad BH3 wild type, phage-displayed] and PSSTMGQVGRQLAIIGDDINRRYASE [Bak BH3 D24A, phage-displayed] are the same in Fold/wt: 1 fold for the first, 1 fold for the second.

PSSTMGQVGRQLAIIGDDINRRYDSA [Bak BH3 E26A, phage-displayed] and PSSTMGQVGRQLAIIGDDINRRADSE [Bak BH3 Y23A, phage-displayed] are the same in Fold/wt: 1 fold for the first, 1 fold for the second.

For PSSTMGQVGRQLAIIGDDINRAYDSE [Bak BH3 R22A, phage-displayed], the Fold/wt was 1 fold.

Going from PSSTMGQVGRQLAIIGDDINRRYDAE [Bak BH3 S25A, phage-displayed] to PSSTMGQVGRQLAIIGDDINRRYDSE [Bak BH3 wild type, phage-displayed], the IC50 rises from 31 nM to 49 nM (1.6-fold). The first is the more potent here.

First: NLWAAQRYGRELRRMSDEFVDSFKKG [Bad BH3 wild type, phage-displayed]
Second: PSSTMGQVGRQLAIIGDDINRRYASE [Bak BH3 D24A, phage-displayed]
The IC50 of the first is 15-fold lower: 2 nM for the first, 30 nM for the second. The first is the more potent here.

Going from PSSTMGQVGRQLAIIGDDINRRYDSA [Bak BH3 E26A, phage-displayed] to PSSTMGQVGRQLAIIGDDINRRADSE [Bak BH3 Y23A, phage-displayed], the IC50 rises from 29 nM to 52 nM (1.8-fold).

Binder PSSTMGQVGRQLAIIGDDINRAYDSE [Bak BH3 R22A, phage-displayed] has an IC50 of 37 nM.

Biological target: Recombinant human Bcl-xL with a 25 amino acid truncation of its C-terminus (human) (UniProt Q07817)
Test: competition phage ELISA
Remark: another data set of the same source

For NLWAAQRYGRELRRMSDEFVDSFKKG [Bad BH3 wild type, phage-displayed], the IC50 was 1 nM.

— patent US20090048164A1
